Measurements taken from patent US6706266, “Oncostatin M antagonists” (SmithKline Beecham Corporation).
Where “and” joins values, the source holds several entries; their conditions need not be identical. Equal entries are not always repeated.

T1: gp130 on HepG2 B6 cells (UniProt P40189 23-918, limits assumed)
T1 sequence (looked up): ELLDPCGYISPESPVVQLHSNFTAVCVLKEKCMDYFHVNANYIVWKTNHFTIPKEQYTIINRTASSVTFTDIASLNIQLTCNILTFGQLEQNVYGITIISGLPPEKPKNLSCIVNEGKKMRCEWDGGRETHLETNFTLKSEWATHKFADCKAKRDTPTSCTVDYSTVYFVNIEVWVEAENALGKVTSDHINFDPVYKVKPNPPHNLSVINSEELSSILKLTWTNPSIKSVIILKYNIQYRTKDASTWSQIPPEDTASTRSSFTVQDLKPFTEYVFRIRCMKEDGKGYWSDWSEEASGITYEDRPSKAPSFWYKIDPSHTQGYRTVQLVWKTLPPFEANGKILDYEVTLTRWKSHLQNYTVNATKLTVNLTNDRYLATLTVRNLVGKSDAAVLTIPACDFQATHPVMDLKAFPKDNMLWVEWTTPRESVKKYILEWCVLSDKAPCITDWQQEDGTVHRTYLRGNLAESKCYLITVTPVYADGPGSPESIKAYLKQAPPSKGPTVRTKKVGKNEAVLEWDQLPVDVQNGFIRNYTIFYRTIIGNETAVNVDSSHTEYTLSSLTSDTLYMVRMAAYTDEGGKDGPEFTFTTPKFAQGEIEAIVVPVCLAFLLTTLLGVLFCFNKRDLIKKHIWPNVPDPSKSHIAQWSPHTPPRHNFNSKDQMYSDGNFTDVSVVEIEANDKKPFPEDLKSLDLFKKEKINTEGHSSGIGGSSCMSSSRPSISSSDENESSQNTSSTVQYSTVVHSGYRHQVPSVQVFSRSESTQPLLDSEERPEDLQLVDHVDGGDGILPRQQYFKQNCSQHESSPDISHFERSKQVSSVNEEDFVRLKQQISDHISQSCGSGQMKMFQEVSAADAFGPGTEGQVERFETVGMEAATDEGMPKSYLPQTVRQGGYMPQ

T2: gp130-Fc fusion protein (human, UniProt P40189 23-619)
T2 construct: extracellular domain; not shown: Fc fragment of human IgG1
T2 sequence (looked up): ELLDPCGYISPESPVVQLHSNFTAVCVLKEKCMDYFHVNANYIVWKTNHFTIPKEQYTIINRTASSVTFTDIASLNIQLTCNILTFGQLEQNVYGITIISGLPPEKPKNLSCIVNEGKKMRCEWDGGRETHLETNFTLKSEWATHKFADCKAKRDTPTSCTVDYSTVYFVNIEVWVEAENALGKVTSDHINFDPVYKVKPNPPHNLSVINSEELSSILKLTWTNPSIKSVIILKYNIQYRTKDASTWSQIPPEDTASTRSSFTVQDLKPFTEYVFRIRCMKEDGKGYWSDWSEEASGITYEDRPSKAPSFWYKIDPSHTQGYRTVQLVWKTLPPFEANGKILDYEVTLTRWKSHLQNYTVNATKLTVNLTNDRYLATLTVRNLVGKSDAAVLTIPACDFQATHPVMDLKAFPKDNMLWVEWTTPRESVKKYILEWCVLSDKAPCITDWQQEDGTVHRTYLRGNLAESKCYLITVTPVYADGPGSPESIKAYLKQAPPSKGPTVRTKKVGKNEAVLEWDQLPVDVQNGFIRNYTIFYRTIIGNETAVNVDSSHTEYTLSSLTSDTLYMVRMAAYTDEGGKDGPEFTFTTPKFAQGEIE


What was measured:
[1] = target: T1, gp130 on HepG2 B6 cells; assay: cell-based or functional assay
[2] = target: T2, gp130-Fc fusion protein; assay: competition ELISA: OSM-GST titrated against plate-bound wt OSM for gp130-Fc; mean
Experimental: (§1) Plates were washed (×6 in PBS 0.05% tween 20, using Skatron Plate washer), tapped dry and blocked to reduce non-specific binding (200 µl/well, 1% BSA/PBS). Following 1 h incubation (room temperature on a shaking platform) the plates were tapped dry and wild type (wt) or mutant OSM-GST from Example 9b added (50 µl/well, 20–0.002 µg/ml, titrated in 1%BSA/PBS). As a positive control polyclonal anti-human OSM antibody (R&D Systems) was also tested (20–0.02 µg/ml). […] Following a 5 h incubation (room temperature on a shaking platform) the plates were washed (×6) and developed using ELISA Amplification System (Life Technologies) as manufacturer's instructions and the OD measured at 490 nm.

[3] = target: T2, gp130-Fc fusion protein; assay: competition ELISA: OSM-GST titrated against plate-bound wt OSM for gp130-Fc; single experiment
Experimental: as §1

| Binder | sPAP HepG2 B6 assay: Expt 1 % (EC50 as % of wild type EC50) [1] | sPAP HepG2 B6 assay: Expt 1 EC50 [1] | sPAP HepG2 B6 assay: Expt 2 % (EC50 as % of wild type EC50) [1] | sPAP HepG2 B6 assay: Expt 2 EC50 [1] | sPAP HepG2 B6 assay: Mean % of wild type EC50 [1] | IC50 [2] | IC50 [3] | sPAP HepG2 B6 assay: Expt 3 % (EC50 as % of wild type EC50) [1] | sPAP HepG2 B6 assay: Expt 3 EC50 [1] |
| --- | --- | --- | --- | --- | --- | --- | --- | --- | --- |
| OSM-GST mutant N117A (ligand, not shown: a dimerising Fc or GST; large carriers; small tags and cut ends, Alanine mutant of m4; also called (18)N117A; 18 N117A) AAIGSCSKEYRVLLGQLQKQTDLMQDTSRLLDPYIRIQGLDVPKLREHCRERPGAFPSEETLRGLGRRGFLQTLNATLGCVLHRLADLEQRLPKAQDLERSGLNIEDLEKLQMARPAILGLRNNIYCMAQLLDNSDTAEPTKAGRGASQPPTPTPASDAFQRKLEGCRFLHGYHRFMHSVGRVFSKWGESPNRSRR | 241% | 58 ng/mL | 132% | 42.5 ng/mL | 186% | 0.785 µg/mL | 0.983 µg/mL and 0.756 µg/mL and 0.617 µg/mL | – | – |
| OSM-GST mutant Q130A (ligand, not shown: a dimerising Fc or GST; large carriers; small tags and cut ends, Alanine mutant of m4; also called (25)Y130A; 25 Q130A) AAIGSCSKEYRVLLGQLQKQTDLMQDTSRLLDPYIRIQGLDVPKLREHCRERPGAFPSEETLRGLGRRGFLQTLNATLGCVLHRLADLEQRLPKAQDLERSGLNIEDLEKLQMARPNILGLRNNIYCMAALLDNSDTAEPTKAGRGASQPPTPTPASDAFQRKLEGCRFLHGYHRFMHSVGRVFSKWGESPNRSRR | 52% | 12.5 ng/mL | 26% | 8.2 ng/mL | 39% | 0.14 µg/mL | 0.145 µg/mL and 0.18 µg/mL and 0.094 µg/mL | – | – |
| OSM-GST mutant N124A (ligand, not shown: a dimerising Fc or GST; large carriers; small tags and cut ends, Alanine mutant of m4; also called (23)N124A; 23 N124A) AAIGSCSKEYRVLLGQLQKQTDLMQDTSRLLDPYIRIQGLDVPKLREHCRERPGAFPSEETLRGLGRRGFLQTLNATLGCVLHRLADLEQRLPKAQDLERSGLNIEDLEKLQMARPNILGLRNAIYCMAQLLDNSDTAEPTKAGRGASQPPTPTPASDAFQRKLEGCRFLHGYHRFMHSVGRVFSKWGESPNRSRR | 125% | 30.2 ng/mL | 113% | 36.2 ng/mL | 119% | 1.99 µg/mL | 1.63 µg/mL and 1.95 µg/mL and 2.38 µg/mL | – | – |
| OSM-GST mutant Q18A (ligand, Alanine mutant of m4; also called (11)Q18A; 11 Q18A; not shown: Its linker is left out) AAIGSCSKEYRVLLGQLAKQTDLMQDTSRLLDPYIRIQGLDVPKLREHCRERPGAFPSEETLRGLGRRGFLQTLNATLGCVLHRLADLEQRLPKAQDLERSGLNIEDLEKLQMARPNILGLRNNIYCMAQLLDNSDTAEPTKAGRGASQPPTPTPASDAFQRKLEGCRFLHGYHRFMHSVGRVFSKWGESPNRSRR | 84% | 20.2 ng/mL | 68% | 21.7 ng/mL | 76% | 0.395 µg/mL | 0.32 µg/mL and 0.31 µg/mL and 0.555 µg/mL | – | – |
| OSM-GST mutant S7A (ligand, not shown: a dimerising Fc or GST; large carriers; small tags and cut ends, Alanine mutant of m4; also called (1)S7A; 1 S7A) AAIGSCAKEYRVLLGQLQKQTDLMQDTSRLLDPYIRIQGLDVPKLREHCRERPGAFPSEETLRGLGRRGFLQTLNATLGCVLHRLADLEQRLPKAQDLERSGLNIEDLEKLQMARPNILGLRNNIYCMAQLLDNSDTAEPTKAGRGASQPPTPTPASDAFQRKLEGCRFLHGYHRFMHSVGRVFSKWGESPNRSRR | 50% | 12 ng/mL | 69% | 22.2 ng/mL | 59.5% | 0.133 µg/mL | 0.199 µg/mL and 0.078 µg/mL and 0.121 µg/mL | – | – |
| OSM-GST mutant R122A (ligand, not shown: a dimerising Fc or GST; large carriers; small tags and cut ends, Alanine mutant of m4; also called (21)R122A; 21 R122A) AAIGSCSKEYRVLLGQLQKQTDLMQDTSRLLDPYIRIQGLDVPKLREHCRERPGAFPSEETLRGLGRRGFLQTLNATLGCVLHRLADLEQRLPKAQDLERSGLNIEDLEKLQMARPNILGLANNIYCMAQLLDNSDTAEPTKAGRGASQPPTPTPASDAFQRKLEGCRFLHGYHRFMHSVGRVFSKWGESPNRSRR | 135% | 32.4 ng/mL | 43% | 13.8 ng/mL | 101% | 0.176 µg/mL | 0.14 µg/mL and 0.22 µg/mL and 0.167 µg/mL | 124% | 47.3 ng/mL |
| OSM-GST mutant R11A (ligand, not shown: a dimerising Fc or GST; large carriers; small tags and cut ends, Alanine mutant of m4; also called (5)R11A; 5 R11A) AAIGSCSKEYAVLLGQLQKQTDLMQDTSRLLDPYIRIQGLDVPKLREHCRERPGAFPSEETLRGLGRRGFLQTLNATLGCVLHRLADLEQRLPKAQDLERSGLNIEDLEKLQMARPNILGLRNNIYCMAQLLDNSDTAEPTKAGRGASQPPTPTPASDAFQRKLEGCRFLHGYHRFMHSVGRVFSKWGESPNRSRR | 118% | 28.6 ng/mL | 86% | 27.7 ng/mL | 102% | 0.239 µg/mL | 0.181 µg/mL and 0.255 µg/mL and 0.28 µg/mL | – | – |
| OSM-GST mutant Q25A (ligand, not shown: a dimerising Fc or GST; large carriers; small tags and cut ends, Alanine mutant of m4; also called (26)Q25A; 26 Q25A) AAIGSCSKEYRVLLGQLQKQTDLMADTSRLLDPYIRIQGLDVPKLREHCRERPGAFPSEETLRGLGRRGFLQTLNATLGCVLHRLADLEQRLPKAQDLERSGLNIEDLEKLQMARPNILGLRNNIYCMAQLLDNSDTAEPTKAGRGASQPPTPTPASDAFQRKLEGCRFLHGYHRFMHSVGRVFSKWGESPNRSRR | 55% | 13.3 ng/mL | 41% | 13 ng/mL | 48% | 0.044 µg/mL | 0.042 µg/mL and 0.036 µg/mL and 0.055 µg/mL | – | – |
| OSM-GST mutant P116A (ligand, not shown: a dimerising Fc or GST; large carriers; small tags and cut ends, Alanine mutant of m4; also called (17)P116A; 17 P116A) AAIGSCSKEYRVLLGQLQKQTDLMQDTSRLLDPYIRIQGLDVPKLREHCRERPGAFPSEETLRGLGRRGFLQTLNATLGCVLHRLADLEQRLPKAQDLERSGLNIEDLEKLQMARANILGLRNNIYCMAQLLDNSDTAEPTKAGRGASQPPTPTPASDAFQRKLEGCRFLHGYHRFMHSVGRVFSKWGESPNRSRR | 104% | 25 ng/mL | 47% | 15 ng/mL | 75.5% | 0.199 µg/mL | 0.232 µg/mL and 0.169 µg/mL and 0.197 µg/mL | – | – |
